The subject of data set [1] is T1, Upstream protein 1 (Up1) from Desulfonema ishimotonii.
T1 sequence: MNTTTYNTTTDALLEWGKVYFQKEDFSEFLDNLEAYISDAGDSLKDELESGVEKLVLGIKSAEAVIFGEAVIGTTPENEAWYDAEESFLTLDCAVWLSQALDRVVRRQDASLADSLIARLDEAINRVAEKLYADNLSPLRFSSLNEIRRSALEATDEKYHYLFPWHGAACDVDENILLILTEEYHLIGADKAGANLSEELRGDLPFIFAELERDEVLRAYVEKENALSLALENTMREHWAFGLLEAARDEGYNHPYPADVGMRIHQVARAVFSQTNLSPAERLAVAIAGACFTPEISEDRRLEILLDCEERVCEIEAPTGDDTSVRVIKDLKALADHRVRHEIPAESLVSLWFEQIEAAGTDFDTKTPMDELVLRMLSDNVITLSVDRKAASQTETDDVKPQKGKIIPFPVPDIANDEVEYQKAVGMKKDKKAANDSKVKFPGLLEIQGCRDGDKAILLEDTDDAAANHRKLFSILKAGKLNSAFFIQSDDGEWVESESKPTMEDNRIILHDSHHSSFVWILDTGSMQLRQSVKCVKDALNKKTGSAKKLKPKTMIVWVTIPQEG

For data set [2], the system named is Up1 fragment residues 396-565.
In data set [3] the test system is Up1 single alanine substitution mutants.
Data set [4] deals with TwinStrep-Up1Δloop mutant.
Data set [5] concerns Up1 fragment amino acids 296-565.
In data set [6] the target is Up1 fused to an 3×HA epitope tag (expressed from a plasmid in HEK293T cells) (Desulfonema ishimotonii). The data set can be described thus: cell-based or functional assay.

Regarding gRAMP(D429A/D654A)-CHAT-crRNA complex, the “Up1 cleavage in vitro (SDS-PAGE)” value in data set [1] is reported as “disrupting the catalytic sites of gRAMP (D429A/D654A) did not”.

In the case of “gRAMP-CHAT-crRNA complex from Desulfonema ishimotonii”, in the data set on Up1 with D430 deleted, the “Up1 cleavage in vitro (western blot)” value is recorded as “the deletion of D430 had no effect”. In addition, in [1], the “Up1 cleavage in vitro (SDS-PAGE)” value is “the largest protein, Up1, is specifically cleaved in response to target RNA”; the “cleavage of the protein substrate in vitro (SDS-PAGE)” value is on record as “the substrate is neighboring protein WP_124327587.1 (FIG. 2), that cleavage of the substrate is dependent on presence of a target RNA”; the “substrate turnover in vitro” value is “cleaving 100-fold excess of Up1 substrate in minutes”. For the same molecule, in data set [2], the “cleavage of truncated Up1 in vitro (SDS-PAGE)” value is reported as “Up1 fragments containing residues 396-565 were fully active in vitro”. In the data set on Up1-Up3 complex, the “cleavage of Up1 within the Up1-Up3 complex (SDS-PAGE)” value is given as “an Up1-Up3 complex which could be cleaved by gRAMP-CHAT in the presence of target RNA”; the “proteolytic cleavage of Up1 in the purified Up1-Up3 complex (SDS-PAGE, Coomassie)” value was “only in the lane with gRAMP-CHAT (+) and target RNA (+) the Up1 band becomes weaker and two new bands appear, at about 50 kDa and just above 15 kDa; much Up1 stays uncleaved; the Up3 band at 25 kDa is unchanged; no new bands without gRAMP-CHAT or with gRAMP-CHAT but without target RNA”. Also, in data set [3], the “gRAMP-CHAT mediated protein cleavage of alanine mutants” value was “No single alanine mutation blocks CHAT protease activity”. For the same molecule, the “Up1 cleavage in vitro (western blot)” value with Up1 with M427 deleted is listed as “truncating the loop by four residues, or deleting M427 alone, prevented in vitro cleavage”. Moreover, the “Up1 cleavage in vitro (western blot)” value in [4] is given as “truncating the loop by four residues, or deleting M427 alone, prevented in vitro cleavage”. In data set [5], the “cleavage of truncated Up1” value is given as “Smaller versions of Up1 containing amino acids 296-565 retained full activity for processing”. Further, in data set [6], the efficiency of Up1 cleavage in HEK293T cells across a panel of endogenous transcripts lay in the range of 3 to 22%.

B1: gRAMP-CHAT(H615A/C658A)-crRNA complex (enzyme, part only; not given: gRAMP, His tag, crRNA)
chain, part: MSNPIRDIQDRLKTAKFDNKDDMMNLASSLYKYEKQLMDSSEATLCQQGLSNRPNSFSQLSQFRDSDIQSKAGGQTGKFWQNEYEACKNFQTHKERRETLEQIIRFLQNGAEEKDADDLLLKTLARAYFHRGLLYRPKGFSVPARKVEAMKKAIAYCEIILDKNEEESEALRIWLYAAMELRRCGEEYPENFAEKLFYLANDGFISELYDIRLFLEYTEREEDNNFLDMILQENQDRERLFELCLYKARACFHLNQLNDVRIYGESAIDNAPGAFADPFWDELVEFIRMLRNKKSELWKEIAIKAWDKCREKEMKVGNNIYLSWYWARQRELYDLAFMAQDGIEKKTRIADSLKSRTTLRIQELNELRKDAHRKQNRRLEDKLDRIIEQENEARDGAYLRRNPPCFTGGKREEIPFARLPQNWIAVHFYLNELESHEGGKGGHALIYDPQKAEKDQWQDKSFDYKELHRKFLEWQENYILNEEGSADFLVTLCREIEKAMPFLFKSEVIPEDRPVLWIPHGFLHRLPLHAAMKSGNNSNIEIFWERHASRYLPAWHLFDPAPYSREESSTLLKNFEEYDFQNLENGEIEVYAPSSPKKVKEAIRENPAILLLLCAGEADMTNPFRSCLKLKNKDMTIFDLLTVEDVRLSGSRILLGAAESDMVPPLEFSVDEHLSVSGAFLSHKAGEIVAGLWTVDSEKVDECYSYLVEEKDFLRNLQEWQMAETENFRSENDSSLFYKIAPFRIIGFPAE
For the molecule B1, the “Up1 cleavage in vitro (SDS-PAGE)” value in data set [1] was “mutating the catalytic residues of the CHAT protease (H615A/C658A) abolished activity”.

The record behind these values is patent US20250129355A1.
